Experiment: yeast display, Sf9 membrane polyspecificity reagent, FACS + sequencing; frameworks hold sequencing errors
Outline: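 A synthetic nanobody library was expressed on Saccharomyces cerevisiae BJ5465 by galactose induction for 36–48 hours. The library was stained for 1 hour at 4 °C with 10% biotinylated, detergent-solubilized Sf9 membrane reagent and enriched with streptavidin microbeads before FACS. Low and high (top ~1%) gates were set on anti-HA fluorescence for expression and streptavidin fluorescence for reagent binding, and each polyreactivity label reflects the gate of origin.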

Row | Sequence | polyreactivity (PSR sort gate)
1 | QVQLVESGGGLVQAGGSLRLSCAASGSTFDPNVMGWYRQAPGNERELVADITTTGVSTYYADSVKGRFTISRDNAKNTVYLQMNSLKPEDTAVYYCNAKLYWYLTRDAYRYRYTYDYWGQGTQVTVSS | low polyreactivity
2 | QVQLVESGGGLVQAGGSLRLSCAASGRTYGRNAMGWYRQEPGKDRELVASITKRGGSTYYADSVKGRFTISRDNAKNTVYLQMNSLKPEDTAVYYCAVEAYDYWGQGSQVTVSS | high polyreactivity
3 | QVQLQESFVGLVQAGGSLRLICAASGNIFPTDRMGWYRQAPGKELEFVATISHGGSTNYADSVKGRFTISRDNAKHTVYLQMNSLKPEDTAVYYCAVWSLGRWRNYYWGQGTQVTVIS | low polyreactivity
4 | QVQLVESGGRLVQAGGSLRLSCAASGFIFAYYSMGWYRKAPGKERELVAAISQSGTSTYYADSLKGRFTISRAKAKNTVYLQMNSLKPVDTAVYYCNAELRDLEYDYWGQGTQVTVSS | low polyreactivity
5 | QVQLVESGGGLVQAGGSLRLSCAASGSTFHSYAMGWYRQAPGKERELVAGITWGGGTYYADSVKGRFTISRDNAKNTVYLQMNSLKPEDTAVYYCAALSYVGSNVYTGAPAAPYDYWGQGTQVTVSS | low polyreactivity
6 | QVQLVESGGGLVQAGGSLRLSCAASGNTFFIYAMGWYRPAPGKERELVAAITYSGGGTYYADSVKGRFTISRDNAKNTVYLQMYSLKPDDTAVYYCAADFYTGWSYIYDYWGHGTQVTVSS | high polyreactivity
7 | QVQLVESGGGLGQAGGSLRLSCAASGITFRSYAMGWYRQAPGKERELVATISWSGGITYYADSVKGRFTISRDNAKNTVYLQMNSLKPEDTAVYYCAKASQSWGPDDYYYWGQGTQVTVSS | low polyreactivity
8 | QVQLVESGGGLVQAGGSLRLSFAASGSTFGVNAMGWYRQAPGKERELVAVITRSGGSTYYADSVKGRFTISRDNAKNTVYLQMNSLKPEDTAVYYCGKSGVVDWGQGTQVTVSS | low polyreactivity
9 | QVQLVESVGGLVQAGGSLRLSCAASGSTFYHYAMGWYRQAPGKVRELVASISHSGGRTFYADSVKGRFTISRDNAMNTVYLQMNSLKPEDTAVYYCAADWRTRYDYWGQGTQVTVSS | low polyreactivity
10 | QVQLVESGGGLVQAGGSLRLSCAASGRIFYPYSMGWYRQAPGKERELVAAIRRSGVDTYYADSVKGRFTISRDNAKNTVYLQMNSLKPEDTAVYYCAADPYWFFPHYDSWGQGTQVTVSS | low polyreactivity
11 | QVQLVESGGGLVQAGGSLRLSCAASGSTFWIYAMGWYRQAPGKERELVAAINWSGGNTYYADSVKGRFTISRDNAKNTVYLQMNSLKPEDTAVYYCAAAFYIYGVEGDYWGQGTQVTVSS | low polyreactivity
12 | QVHPVESGGGLVQAGGSLRLSCAASGGILYRNAMGWYRQAPGKERELVAAISSRGGSTYYADSVKGRFTISRDNAKNTVYLQMNSLKPEDTAVYYCAVVNRSAQSLKYEYWGQGTQVTVSS | high polyreactivity
13 | QVQLVESGGGLVQAGGSLRLSCAASGGTFARYAMGWYRQAPGKERELVAAITRSGGTTYYADSVKGRFTISRDNAKNTVYLQMNSLKPEDTAVYYCAALPIVDYYGYGYWGQGTQVNVSS | high polyreactivity
14 | QVQLVESGGGLVQAGGSLRLSCAASGSIIKPYDMGWYRQAPGKERELVAAIRSSGGRTNYADSVKGRFTISRDNAKNTVYLQMNSLKPEDTAVYYCAAGYVSYWYYRYDYWGQGTQVTVSS | high polyreactivity
15 | QVQLVESGGGLVQAGGSLRLSCAASGRTFISYAMGWYRQAPGKERELVAGISTSGDNTYNADSVKGRFTISRDNAKNTVYLQMNSLKPEDTAVYYCAAGQDLHDFDYWGQGTQVTVSS | low polyreactivity
16 | QVHLVESGGGLVQAGGSLRLSCAASGRTFWVYAMGWYRQAPGKERQLVAAINRRGGGTYYADSVKGRFTISRDNAKNTVYLQMNTLKPEDTAVYYCAAVSTRVRVNYDSWGQGTQVTVSS | high polyreactivity
17 | QDQLVESGGGLDQAGGSLRLSCAASGFTFYNYAMGWYRQAPGKERELVAAISWNGGSTYYADSVKGRFTISRDNAKNTVYLQMNSLKPEDTAVYYCNADISQRTRGYYYVWWSRMDYWGQGTQVTVSS | low polyreactivity
18 | QVQLVESGGGLVQAGGSLRLSCPASGRTFRWYAMGWYRQAPGKERELVAAISQSGGSTYYAVSVKGRFTISRDNAKNTVYLQMNSLKPEDTAVYYFNAYPPYGGYAYGRGDYWGQGTQVTVSS | high polyreactivity
19 | QVQLVESGGGLVQAGGSLRLSCAASGSTLISYTMGWYRQAPGKERELVAAITSAVTTYYADSVKGRFTISRDNAKNTVYLQMNSLKPEDTAVYYCNTYPFKTLPYRYPRGDYWGQGTQVTVSS | low polyreactivity
20 | QVQLVESGGGLVQAGGSHRLSCAASGSTFTWYPMGWYRQEPGKERELVADISYGGGSTYYADSVKGRFTISRDNAKNTVYLQMNSLKPEDTAVYYCAAESIPYYRYDYWGQGTQVTVSS | low polyreactivity
21 | QVQLVESGGGLVQAGGSLRLSCAASGLTLGRYAMGWYRQAPGNERELVAVITGGGSTNYADSVKGRFTISRDNAKNTVYIQLNSLKPADTAVYYCAVRGGIFQTLSTWYRYYYCGQGTQVTVSS | high polyreactivity
22 | QVQLVESGGGLVQAGGSLRLSCAASGSIFRSYALGWYRQSPGKERELVASISRRGGSTYYADSVKGRFTISRDNAKNTVYLQMNSLKPEDTAVYYCAAVRYNSRVSTTPSEMYYWGQGTQVTVSS | low polyreactivity

Row | Sequence | polyreactivity (PSR sort gate)
23 | QVQLVESGGGLVQAGGSLRLSCAASGSIFAYYAMGWYRQAPGKERELVASISSVGTTKYADSVKGRFTISRDNAKNTVYLQMNSLKPEDTAVYYWATDGYSPAAFDYWGQGTQVTVSS | low polyreactivity
24 | QVQHVESAAGLVQAGGSLRLSCDPSGIIFGRYAMGLYRHAPGKEREFVAAITWSGGSTYYADSVKGRFTISRDNAKNTVYLQMNSLKPEDTAVYYCAADTWYRYDYWGQGTQVTVSS | low polyreactivity
25 | QVQLVESCGGLVQAGCSLRLSCAASGRIFSTNAMGWYRPAPGKERELVAAISSSGSRTYLADSVKGRFTISRDNAKNTVYLQMNSLKPEDTAVYFCNALRNYHHYEYDYWGQGTQVTVSS | high polyreactivity
26 | QVRLVESGGGLDQAGGSLPLSCAASGRTFEPNAMGWYRQAPGKERELVAAITSAGITHYADSVKGRFTISRDNAKNTVYLQMNSLKPEDTAVYYCRLQTGIIDRLRRYNYWGQGTQVTVSS | high polyreactivity
27 | QVQHVESGGGLVQAGGSLRLSCAASGSTSGKYAMGWYRQAPGKERELVAGITKGGGGTYYADSVKGRFTISRDNAKNTVYLQLNSLKPEVTAVYYCAKYYGSGYYIYDYWGQGTQVTVSS | low polyreactivity
28 | QVQLVESGGGLVQAGGSLRLSCAASGRTFYIYAMGWYRQAPGKERELVADITSGGSTYYADSVKGRFTISRDNAKNTVYLQMNSLKPDDTAVYYCAADWVTFYSYTEYDYWGQGSQVTVSS | low polyreactivity
29 | QVQLVESGGGLVQAGGSLRLSCAASGFTFSFYAMGWYRQAPGKERELVATIRSGGRTYYADSVKGRFTISRDNAKNTVYLQRNSLKPEDTAVYYCAADDHYGRGFQYYYWGQGTQVTVSS | high polyreactivity
30 | QLQLVESGGGLVQAGCSLRLICAASGFTFYRNAMGWYRQAPGKEREFVAAISSSGGGTYYADSVKGRFTISRDNAKNTVYLQMNSLKPDDTAVYYCAAKYPQKTTVNSYGNSFYYWGQGTQVTVSS | high polyreactivity
31 | QVQLVESGGGLVQAGGSLRLSCAASGGIFFSYAMGWYRQAPGKERELVAAIRTNGGTTYYADSVKGRFTISRDNAKNTVYLQMNSLKPEDTAVYYCAALPGGYYDRGEYDYWGQGTQVTVSS | low polyreactivity
32 | QVQLVESGGGLVQAGGSLRLSCAASGSTFVNYAMGWYRQAPGKERELVAAITRSGGNTYYADSVKGRFTISRDNAKNTVYLQMNSLKPEDTAVYDCAASFKQDIWYYYWGQGTQVTVSS | high polyreactivity
33 | QVQLVESGGGLVHAGGSLRLSCAASGSIFTWNGMGWYRQAPGKERELVAGMSYSGGITYTDSVKGRFTISRDNAKNTVYLQMNSLKPEDTAVYYCNARSKVAYYRHYYWGQGTQVTVSS | low polyreactivity
34 | QVQLVESGGGLVQAGGSLRLSCAASGITFADNAMGWYRQAPGKERELVASISKSSGSTYYADSVKGRFTISRDNAKNTVYLQMNSLKPEDTAVYYCATDPYVRRSPSWYDYWGQGTQVTVSS | low polyreactivity
35 | QVQLVDSGGGLVQAGGSLRLSCAASGRTFATYAMGWNRQAPGKERELVAAISSGGSTYYADSVKGRFTISRDNAKNNVYLQMNRLKPDDTAVYYCAAEVWFPDRWMDYWGQGTQVTVSS | high polyreactivity
36 | QVQLVESGRGLVQAGGSLRLSCAASGRTFPFYAMGWYRQAPGKEREFVAAITASGDSTYYADSVKGRFTISRDNAKNTVYFQMHSLKPEDTAVYYCAADLPVWYVTRYDYWGQATQVTVSS | low polyreactivity
37 | QVHLVESGGGLVQAGGSLRLSCGASGSIFFIYAMGCYRQAPGKERELVATITSGGSTYYADSLKGRFTISRDNAKNTVYLQMNSLKPEDTAVYYCAVDEYFAFDYWGLGTQVTVSS | low polyreactivity
38 | QVQLVESGGGLVQAGGSLRLSCAASGSTFGRYTMGWYRQAPGKEREFVAAIRWSGGNTYYADSVKGRFTISRDNAKNTVYLQMNSLKPEDTAVYYCNRVYSTIGDYWGQGTQVTVSS | low polyreactivity
39 | QVQLVESGGGLVQAGGSLRLSCASSGRTFEDYTMGWYRQAPGKVWEWVAAITGGGSTNYADSVKGRFTISRDNAKNTVYLQMYSQKPEDTAVYYCAAHYRYNWFRRYSYWGQGTQETVSS | high polyreactivity
40 | QVQLVESGGGLVQAGGSLRLSCAASGRTFRYYAMGWYRQAPGKERELVASISRRGGSTHYADSVKVRFTISRDNAKNTVYLQMNSLKPEDTAVYYCAAYGYYTKVTKYDYWGQGTQVTVSS | high polyreactivity
41 | QVQLVDSGGGLVQAGGSLRLRCAASGSTFRRYAMGWYRQAPGKERELVAAISNRDGSTYYADSVKGRFTISRDNAKNTVYLQMNSLKADDTAVYYCNAYGYGDYSFLKYRFEYDYWGQGTQVTVSS | low polyreactivity
42 | QVQLVESGGGLVQAGGSLRLSCAASGFTFDEYAMGWYRQAPGKEREFVATISSSGGSTYYADSVKGRFTISRDNAKNTVYLQMNSLKPEDTAVYYCAADVRRLYTSGVDYWWHSEYDYWGQGTQVTLSS | low polyreactivity
43 | QVQLVESGGGLVQPGGSLRLSCAASGFIFPSYDMGWYIQAPGKERELVAAITSDVNSYYADSVKGRFTISRDNAKNTVYLQMTSLKPEDTAFYSCNADADDYRDYQDYDYWGQGTQVTVSS | low polyreactivity
